Results taken from US20240024520A1, “AUTONOMOUS KNOB DOMAIN PEPTIDES” (UCB BIOPHARMA SRL, priority 2020, published 2024).
pKd: −log10 of the molar value. Bridge positions count the residues as written; N and C are the ends. Peptide text beside a SMILES is read from it.

Experiments:
Format in all cases: binding
C5 [1] = biological target: T1, C5 (Homo sapiens, UniProt P01031); assay: Monoclonal phage screening ELISA, human C5
Description: (§1) For the C5 libraries, a single round of enrichment was performed with either human or rat C5 protein. […] Phage were blocked for 30 minutes. Biotinylated antigen was added to the blocked phage at a concentration of 100 nM and incubated at room temperature with mixing.
(§2) Colonies were picked into a 96-well culture plate containing selective medium 2TY supplemented with 1% Glucose and 100 μg/ml Carbenicillin and was incubated at 37° C. until wells reached mid-log phase of growth prior to addition of M13K07 helper phage. The block was incubated without shaking for 1 hour to achieve infection and phage production using continued culture in selective media supplemented with 50 μg/ml Kanamycin and 100 μg/ml Carbenicillin.
Binding to antigen was assessed by monoclonal phage ELISA, 96-well flat bottom Nunc MaxiSorp plates (Thermofisher) were coated with a 2.5 μg/ml solution of human, mouse, or rat serum albumin, human C5 or mouse C5 diluted with PBS, and left overnight at 4° C. Negative control plate and Anti-myc tag plate were also prepared.
(§3) Monoclonal phage rescue supernatants were blocked with an equal volume of a 2% milk (w/v) in PBS, for serum albumin proteins, or 2% BSA and 2% milk (w/v) in PBS solution. The coating solution was removed from coated Nunc plates and each plate was blocked with 1% BSA in PBS (for C5 libraries) or 1% milk powder (for albumin library). Both phage and Nunc plates were blocked for 1 hour at room temperature. Nunc plates were washed using a 96-well microplate washer (BioTek) with a PBS solution contain 0.1% Tween20 (Sigma Aldrich). 100 of blocked phage solution was added to each well of Nunc MaxiSorp plate and left shaking at room temperature for 1 hour. Plates were washed and dried as previously described. 100 of an Anti-M13-Horse radish peroxidase conjugated antibody (GE Healthcare) diluted (1:5,000) in a 1% BSA or milk solution was added to each well and left shaking at room temperature for 1 hour. Plates were washed again and 50 μL of TMB solution (Merck Millipore) was added to each well. Plates were left shaking for 10 minutes. Absorbance was measured at 630 nm and 490 nm. Binding signals were obtained where Absorbance at 630 nm was >3-times the signal upon irrelevant antigen.
(§4) By monoclonal phage ELISA the following ultralong CDR-H3 sequences were identified as binders (OD>0.2 AU): […]

rat C5 protein = rat C5 protein (Rattus norvegicus, UniProt P08650); assay: Monoclonal phage screening ELISA, rat C5
Sequence of rat C5 protein (P08650 19-674 limits assumed): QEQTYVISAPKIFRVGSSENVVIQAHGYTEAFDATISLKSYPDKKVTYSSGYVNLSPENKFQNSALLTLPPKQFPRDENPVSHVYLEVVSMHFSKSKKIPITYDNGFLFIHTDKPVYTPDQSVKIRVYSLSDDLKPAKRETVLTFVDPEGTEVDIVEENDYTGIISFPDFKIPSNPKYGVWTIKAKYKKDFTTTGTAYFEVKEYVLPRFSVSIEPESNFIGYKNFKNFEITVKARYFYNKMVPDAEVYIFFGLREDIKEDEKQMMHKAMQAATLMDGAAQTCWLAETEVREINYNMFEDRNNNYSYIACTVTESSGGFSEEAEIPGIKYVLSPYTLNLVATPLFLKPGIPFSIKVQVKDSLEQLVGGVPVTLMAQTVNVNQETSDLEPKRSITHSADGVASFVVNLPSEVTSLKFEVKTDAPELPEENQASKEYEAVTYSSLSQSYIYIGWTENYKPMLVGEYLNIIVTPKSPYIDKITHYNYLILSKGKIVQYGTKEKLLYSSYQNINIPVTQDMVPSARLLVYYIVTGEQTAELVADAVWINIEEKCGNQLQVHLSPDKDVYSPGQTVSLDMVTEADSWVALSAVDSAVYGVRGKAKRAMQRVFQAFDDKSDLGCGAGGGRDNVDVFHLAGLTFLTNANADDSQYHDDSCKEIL
Sequence of rat C5 protein (P08650 679-1681 limits assumed): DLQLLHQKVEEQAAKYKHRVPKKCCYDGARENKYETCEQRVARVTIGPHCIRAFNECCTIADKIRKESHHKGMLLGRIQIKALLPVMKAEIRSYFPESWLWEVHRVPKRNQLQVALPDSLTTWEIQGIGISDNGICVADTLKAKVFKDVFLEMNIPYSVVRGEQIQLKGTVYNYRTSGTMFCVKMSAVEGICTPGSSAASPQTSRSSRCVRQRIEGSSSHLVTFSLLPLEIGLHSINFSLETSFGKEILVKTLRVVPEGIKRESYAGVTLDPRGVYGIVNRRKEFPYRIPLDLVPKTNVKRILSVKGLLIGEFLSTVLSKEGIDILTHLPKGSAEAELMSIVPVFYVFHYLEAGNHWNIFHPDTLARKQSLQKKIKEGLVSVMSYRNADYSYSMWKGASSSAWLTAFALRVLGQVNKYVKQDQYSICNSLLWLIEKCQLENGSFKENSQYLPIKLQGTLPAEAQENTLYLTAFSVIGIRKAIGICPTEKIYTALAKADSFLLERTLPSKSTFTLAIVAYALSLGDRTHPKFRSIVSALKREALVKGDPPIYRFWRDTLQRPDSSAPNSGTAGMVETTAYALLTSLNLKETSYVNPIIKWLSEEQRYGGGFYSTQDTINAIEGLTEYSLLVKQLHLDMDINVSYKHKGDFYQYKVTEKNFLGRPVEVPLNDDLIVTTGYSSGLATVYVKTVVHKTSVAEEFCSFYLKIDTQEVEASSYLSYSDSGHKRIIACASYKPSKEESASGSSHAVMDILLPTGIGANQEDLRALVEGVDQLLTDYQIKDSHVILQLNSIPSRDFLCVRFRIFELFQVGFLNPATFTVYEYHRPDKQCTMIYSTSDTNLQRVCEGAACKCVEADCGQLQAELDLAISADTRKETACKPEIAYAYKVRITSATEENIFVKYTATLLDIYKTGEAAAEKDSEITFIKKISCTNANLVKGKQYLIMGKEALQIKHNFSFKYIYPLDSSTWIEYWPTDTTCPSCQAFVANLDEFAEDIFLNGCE
Description: as §1, §2
[…] Negative control plate and Anti-myc tag plate were also prepared.
as §3, §4

C5 [2] = biological target: T1, C5; assay: Biacore multi-cycle kinetics on human C5; conditions: for mean stoichiometric ratio: measured Rmax divided by theoretical Rmax, n = 3 experiments; for koff: read-out: mean Koff, multi-cycle kinetics, n = 3 experiments; for kon: read-out: mean Kon, multi-cycle kinetics, n = 3 experiments
Description: Binding of knob domain peptides to human C5 was measured by SPR, using a multi-cycle kinetics method as follows:
Kinetics were measured using a Biacore 8K (GE Healthcare) with a CM5 chip, which was prepared as follows: EDC/NHS was mixed at 1:1 ratio (flow rate, 10 μL/min; contact time, 30 seconds), human C5 protein at 1 μg/mL in pH 4.5 sodium-acetate buffer, were injected over flow cell one only (flow rate, 10 μL/min; contact time, 60 seconds). Final immobilization levels in the range of 2000-3000 response units (RU) were obtained, to yield theoretical Rmax values of ˜50-60 RU. Serial dilutions of peptide were prepared in HBS-EP buffer and injected (flow rate, 30 μL/min; contact time, 240 seconds; dissociation time, 6000 seconds). After each injection, the surface was regenerated with two sequential injections of 2M MgCl2 (flow rate, […]; contact time, 30 seconds). Binding to the reference surface was subtracted, and the data were fitted to a single site binding model, using Biacore evaluation software.

C5 [3] = biological target: T1, C5; assay: Biacore (SPR) single-cycle kinetics on immobilised C5; conditions: for kd: chemically derived knob domain peptides, n = 1; for kon: read-out: ka
Description: Binding to C5 was measured using surface plasmon resonance (SPR) single-cycle kinetics as described below.
Biacore single-cycle kinetics. Using a Biacore 8K (GE Healthcare), C5 was immobilized on a CM5 chip by amine coupling. Flow cells were activated using EDC/NHS (flow rate, 10 μL/min; contact time, 30 s). C5, at 1 μg/mL in pH 4.5 Sodium-acetate buffer, was immobilized on flow cell two only (flow rate, 10 μL/min; contact time, 420 s). Finally, ethanolamine was applied to both flow cells (flow rate, 10 μL/min; contact time, 420 s). A final immobilization level of approximately 2,000 response units was obtained.
Single-cycle kinetics were measured using titrations in HBS-EP buffer. A high flow rate of 40 μL/min was used, with a contact time of 230 s and a dissociation time of 900 s. Binding to the reference surface was subtracted, and the data were fitted to a single-site binding model using Biacore evaluation software.
We measured individual rate constants (kon and koff) and equilibrium dissociation constants (KD) for knob domain peptides binding to C5 by the Biacore single-cycle kinetics method described above.
We used SPR single cycle kinetics to measure binding to human C5 protein.

[4] = anti-C5 ultralong CDR-H3, binder = OD>0.2 AU
[5] = knob domain of the anti-C5 ultralong CDR-H3

T1 sequence (P01031 19-1676): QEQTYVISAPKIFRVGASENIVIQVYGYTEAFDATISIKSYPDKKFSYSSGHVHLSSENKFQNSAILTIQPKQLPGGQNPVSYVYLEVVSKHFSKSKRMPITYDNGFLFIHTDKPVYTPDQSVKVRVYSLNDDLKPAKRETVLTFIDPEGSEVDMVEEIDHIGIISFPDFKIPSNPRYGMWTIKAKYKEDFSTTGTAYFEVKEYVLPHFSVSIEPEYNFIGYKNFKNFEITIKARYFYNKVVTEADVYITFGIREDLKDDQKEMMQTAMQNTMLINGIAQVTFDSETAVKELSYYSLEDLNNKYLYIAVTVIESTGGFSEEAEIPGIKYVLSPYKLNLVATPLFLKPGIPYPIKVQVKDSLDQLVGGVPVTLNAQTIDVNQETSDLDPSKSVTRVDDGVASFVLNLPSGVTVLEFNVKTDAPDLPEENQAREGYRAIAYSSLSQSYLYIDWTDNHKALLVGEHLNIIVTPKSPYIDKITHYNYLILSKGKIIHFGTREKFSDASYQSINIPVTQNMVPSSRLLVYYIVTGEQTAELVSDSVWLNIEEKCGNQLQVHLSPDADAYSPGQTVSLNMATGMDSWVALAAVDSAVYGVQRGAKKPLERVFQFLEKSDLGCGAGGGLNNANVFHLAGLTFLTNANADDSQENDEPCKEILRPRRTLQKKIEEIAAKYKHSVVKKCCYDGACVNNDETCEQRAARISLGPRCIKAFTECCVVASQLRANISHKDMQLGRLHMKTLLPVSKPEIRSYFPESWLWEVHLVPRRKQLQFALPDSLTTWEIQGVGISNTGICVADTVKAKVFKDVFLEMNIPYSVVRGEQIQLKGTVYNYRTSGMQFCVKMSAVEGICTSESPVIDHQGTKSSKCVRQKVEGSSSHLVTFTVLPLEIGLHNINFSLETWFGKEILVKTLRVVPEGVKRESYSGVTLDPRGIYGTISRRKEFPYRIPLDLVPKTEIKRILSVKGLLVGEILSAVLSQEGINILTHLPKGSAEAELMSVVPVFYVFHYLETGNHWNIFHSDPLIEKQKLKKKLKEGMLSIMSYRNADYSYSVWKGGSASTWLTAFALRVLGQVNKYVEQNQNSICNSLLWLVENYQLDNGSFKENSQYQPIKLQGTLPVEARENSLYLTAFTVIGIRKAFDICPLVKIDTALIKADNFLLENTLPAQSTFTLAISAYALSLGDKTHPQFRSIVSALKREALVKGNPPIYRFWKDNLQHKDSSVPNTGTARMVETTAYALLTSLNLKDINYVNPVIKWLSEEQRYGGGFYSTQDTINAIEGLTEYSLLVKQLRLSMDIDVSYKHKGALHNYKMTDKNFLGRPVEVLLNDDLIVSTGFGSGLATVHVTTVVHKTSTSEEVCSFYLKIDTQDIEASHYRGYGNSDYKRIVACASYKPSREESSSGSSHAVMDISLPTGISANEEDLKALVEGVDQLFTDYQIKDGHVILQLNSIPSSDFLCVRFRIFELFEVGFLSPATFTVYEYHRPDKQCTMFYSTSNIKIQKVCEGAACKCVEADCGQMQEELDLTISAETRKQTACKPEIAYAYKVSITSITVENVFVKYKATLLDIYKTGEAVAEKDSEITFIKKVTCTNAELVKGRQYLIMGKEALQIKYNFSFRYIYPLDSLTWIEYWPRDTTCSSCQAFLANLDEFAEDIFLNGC

| Molecule | Specificity (C5 [1]; [4]) | Specificity (rat C5 protein; [4]) | Specificity (C5 [1]; [5]) | Specificity (rat C5 protein; [5]) | further results |
| --- | --- | --- | --- | --- | --- |
| 551 (TTVHQRTKKTCPLGYDLNYRCDHFNTCRVEECCKNGVVNAYGICEYAGGSATYTYEWYVD; Anti-C5 ultralong CDR-H3) [compound 551] | Human and Rat | Human and Rat | – | – | – |
| 552 (TTVHQRTKEERTCPSGCSWFSGCWDTYRCGPSVCCRDGRYGCAAIICRDTYEWYVD; Anti-C5 ultralong CDR-H3) [compound 552] | Human and Rat | Human and Rat | – | – | – |
| 553 (TTVHQKTKKTCPRGYHYNDRCEFFNTCRVEECCLNGVVNTYGICEYEGGSATYTYEWYVD; Anti-C5 ultralong CDR-H3) [compound 553] | Human and Rat | Human and Rat | – | – | – |
| 554 (TTVHQKTKKTCPRGYHYNDRCDFFNTCRVEECCLNGVVNTYGICEYEGGSATYTYEWYVD; Anti-C5 ultralong CDR-H3) [compound 554] | Human and Rat | Human and Rat | – | – | – |
| 555 (TTVHQKTKKTCPRGYHYNDRCEFFNTCRVEECCLNGVVNTYGICEYEGGSATYTYEWYVD; Anti-C5 ultralong CDR-H3) [compound 555] | Human and Rat | Human and Rat | – | – | – |
| 557 (TTVHLKTKKSCPLGYAINDRCDDLKTCGPDECCLNGVVNAYGICEYEGESATHTYEWYVD; Anti-C5 ultralong CDR-H3) [compound 557] | Human and Rat | Human and Rat | – | – | – |
| 558 (TTVHQKTKKSCPLGYAINDRCDDLKTCGPDECCLNGVVNAYGICEYEGESATHTYELYVE; Anti-C5 ultralong CDR-H3) [compound 558] | Human and Rat | Human and Rat | – | – | – |
| 594 (TCPLGYDLNYRCDHFNTCRVEECCKNGVVNAYGICEYAGGSAT; Anti-C5 ultralong CDR-H3 knob domain) [compound 594] | – | – | Human and Rat | Human and Rat | – |
| 595 (TCPSGCSWFSGCWDTYRCGPSVCCRDGRYGCAAIICRDT; Anti-C5 ultralong CDR-H3 knob domain) [compound 595] | – | – | Human and Rat | Human and Rat | – |
| 596 (TCPRGYHYNDRCEFFNTCRVEECCLNGVVNTYGICEYEGGSAT; Anti-C5 ultralong CDR-H3 knob domain) [compound 596] | – | – | Human and Rat | Human and Rat | – |
| 597 (TCPRGYHYNDRCDFFNTCRVEECCLNGVVNTYGICEYEGGSAT; Anti-C5 ultralong CDR-H3 knob domain) [compound 597] | – | – | Human and Rat | Human and Rat | – |
| 598 (SCPDGYGYGDGYCYDSGCSASDCYGVDALYSYGHCGCSIYTERPR; Anti-C5 ultralong CDR-H3 knob domain) [compound 598] | – | – | Human and Rat | Human and Rat | – |
| 599 (SCPLGYAINDRCDDLKTCGPDECCLNGVVNAYGICEYEGESAT; Anti-C5 ultralong CDR-H3 knob domain) [compound 599] | – | – | Human and Rat | Human and Rat | – |
| CSCC[C@@H]1NC(=O)[C@@H]2CCCN2C(=O)[C@@H](NC(=O)[C@@H]2CSSC[C@H](NC(=O)[C@@H](N)CO)C(=O)N3CCC[C@H]3C(=O)N[C@@H](CC(=O)O)C(=O)NCC(=O)N[C@@H](Cc3ccccc3)C(=O)N[C@@H](CO)C(=O)N[C@@H](Cc3ccc(O)cc3)C(=O)N[C@@H](CCCNC(=N)N)C(=O)N[C@@H](CO)C(=O)N[C@@H](Cc3c[nH]c4ccccc34)C(=O)N[C@@H](CC(=O)O)C(=O)N[C@@H](CC(=O)O)C(=O)N[C@@H](Cc3ccccc3)C(=O)N2)CSSC[C@@H](C(=O)N[C@@H](CC(C)C)C(=O)N[C@@H](C)C(=O)N2CCC[C@H]2C(=O)N[C@@H](CCCNC(=N)N)C(=O)N[C@@H](CC(N)=O)C(=O)O)NC(=O)[C@H](CCCNC(=N)N)NC(=O)CNC(=O)[C@H](C(C)C)NC1=O (H-SCPDGFSYRSWDDFCCPMVGRCLAPRN-OH; disulfide 2-15, 16-22; N-terminus assumed) | – | – | – | – | pKd (C5 [2]): 8.14; mean stoichiometric ratio (C5 [2]; listed as K149chemSD-A): 0.82; koff (C5 [2]): 0.00484 s⁻¹; kon (C5 [2]): 713000 M⁻¹ s⁻¹; pKd (C5 [3]): 8.21; kd (C5 [3]): 0.00723 s⁻¹; kon (C5 [3]): 1.17e+06 M⁻¹ s⁻¹; fold more potent than K149B (C5 [3]; site directed disulphide forms of K149): 41 fold |
| CSCC[C@@H]1NC(=O)[C@@H]2CCCN2C(=O)[C@@H]2CSSC[C@H](NC(=O)[C@@H](N)CO)C(=O)N3CCC[C@H]3C(=O)N[C@@H](CC(=O)O)C(=O)NCC(=O)N[C@@H](Cc3ccccc3)C(=O)N[C@@H](CO)C(=O)N[C@@H](Cc3ccc(O)cc3)C(=O)N[C@@H](CCCNC(=N)N)C(=O)N[C@@H](CO)C(=O)N[C@@H](Cc3c[nH]c4ccccc34)C(=O)N[C@@H](CC(=O)O)C(=O)N[C@@H](CC(=O)O)C(=O)N[C@@H](Cc3ccccc3)C(=O)N[C@@H](CSSC[C@@H](C(=O)N[C@@H](CC(C)C)C(=O)N[C@@H](C)C(=O)N3CCC[C@H]3C(=O)N[C@@H](CCCNC(=N)N)C(=O)N[C@@H](CC(N)=O)C(=O)O)NC(=O)[C@H](CCCNC(=N)N)NC(=O)CNC(=O)[C@H](C(C)C)NC1=O)C(=O)N2 [K149B] (H-SCPDGFSYRSWDDFCCPMVGRCLAPRN-OH; disulfide 2-16, 15-22; N-terminus assumed) | – | – | – | – | pKd (C5 [2]): 6.57; fold lower affinity (relative to K149chemSD-A) (C5 [2]): approximately 35 fold; mean stoichiometric ratio (C5 [2]): 0.81; koff (C5 [2]): 0.00417 s⁻¹; kon (C5 [2]): 15600 M⁻¹ s⁻¹; pKd (C5 [3]): 6.61; kd (C5 [3]): 0.00732 s⁻¹; kon (C5 [3]): 29700 M⁻¹ s⁻¹ |
